Here are results for 28 sequences from the supplement of paper PMC9170038.

The test system of this data set is MS2 coat protein. In words: apparent KD of MS2 coat protein; designed switch direction (-1 OFF switch, 1 ON switch): 1; higher = weaker reporter binding. In outline:
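The reported apparent KD is a per-design median over clusters, from curve fits of normalised cluster fluorescence. Protein titrations used SNAP-549-labelled MS2 coat protein, doubled from 0.7 or 1.5 nM to 3 µM, in Tris-HCl pH 7.5 buffer with KCl, MgCl2, BSA, DTT, tRNA and Tween-20, with no input, 200 uM small-molecule ligand, or an oligonucleotide input. The RNA switches were transcribed on Illumina chips by stalled E. coli RNA polymerase.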

The mark [1] stands for this setting: Eterna round: R95, input ligand: FMN 200 uM.
Setting [2] is: Eterna round: R95, input ligand: microRNA oligo, concentration not stated.
Where [3] appears, read: Eterna round: R95, input ligand: none.
The mark [4] stands for this setting: input ligand: microRNA oligo, concentration not stated.

For the sequence “CGUCCGGCCUGUGCUGGCCGGAAGCAUGUACAUGAGGAUCACCCAUGUUCAUGUGCUGGCUUUUUGCUCGUCUUGUG [salish99_mir208a_011] (puzzle: Sensor for hsa-mir-208a)”, the “apparent KD of MS2 coat protein” value runs as follows: under setting [1], 13.9 nM; under setting [2], 11.1 nM; under setting [3], 14 nM.

Consider “CGUCCGGCCUGUGCUGGCCGGUCGCUUGUACAUGAGGAUCACCCAUGUUCUUGUGCUGGCUUUUUGCUCGUCUUGUG [salish99_mir208a_020] (puzzle: Sensor for hsa-mir-208a)”, for which the “apparent KD of MS2 coat protein” value was 27.1 nM under setting [1], 17.7 nM under setting [2] and 31 nM under setting [3].

Consider “CGUCCGGCCUGUGCUGGCCGGUGGCUUGUACAUGAGGAUCACCCAUGUUCUUGUGCUGGCUUUUUGCUCGUCGUGUG [salish99_mir208a_r3_023] (puzzle: Sensor for hsa-mir-208a)”, for which the “apparent KD of MS2 coat protein” value by setting is: under setting [1], 32.6 nM; under setting [2], 19.8 nM; under setting [3], 37.9 nM.

As to “CGUCGCUGUCGAGAGGAUAUGCGGUGAUGGACAUGAGGAUCACCCAUGUUAGCGAUAGUAUCACGGUAGAAGGCUCUUACGACUG [Soteed Omei mod 26] (puzzle: Same State 2)”, the “apparent KD of MS2 coat protein” value under setting [2] came out at 26.7 nM.

Take “CGUCGUUUGAUAGGAUAUCGCUAUACAUGAGGAUCACCCAUGUUUACCACGCUGGUUUUUCAUACCGAGAAGGAUUCUGAUGUU [salish99_SSNG02_r04_016] (Eterna round: R96, puzzle: Same State NG 2)”: the “apparent KD of MS2 coat protein” value worked out at 49.8 nM (input ligand: FMN 200 uM), 42.4 nM under setting [4] and 44.1 nM (input ligand: none).

On to “CGUCGUUUGAUAGGAUAUCGCUUUACAUGAGGAUCACCCAUGUUUACCUCGCUGGUUUUUCUUUCCGAGAAGGAUUCUGAUGUU [salish99_SSNG02_r04_030] (Eterna round: R96, puzzle: Same State NG 2)”, for which the “apparent KD of MS2 coat protein” value stood at 43.4 nM (input ligand: FMN 200 uM), 31.6 nM under setting [4] and 40.4 nM (input ligand: none).

Consider “CGUGAACAUGAGGAUCACCCAUGUGAAAAACGUAGAGGAUAUGUCACAUGAGUGUAAAAGACAGAAGGCUAUCGUG [Mod 2 of Round 1 starryjess' Mod pf Nando] (Eterna round: R96, puzzle: Same State 1)”, for which the “apparent KD of MS2 coat protein” value is, setting by setting: (input ligand: FMN 200 uM) 35.4 nM; under setting [4], 172 nM; (input ligand: none) 243 nM.

“CGUUCACAUGAGGAUCACCCAUGUCAGAUUUGGUCAGGAUAUGGUCGGCUUCCGCUAUUGCCAGAAGGGACUGUUG [JR_SS001_Sub705] (Eterna round: R96, puzzle: Same State 1)”: the “apparent KD of MS2 coat protein” value (input ligand: FMN 200 uM) is 24.3 nM, the “apparent KD of MS2 coat protein” value under setting [4] was found to be 28.8 nM and the “apparent KD of MS2 coat protein” value (input ligand: none) was 35.2 nM.

“CUACAGGCCAGAGGAUAUGGGAAAGGAAGUGUACCAGAAGGUUGGCCUCCUGAGUACAUGAGGAUCACCCAUGUAGAAAGGCGA [PowerStrip SSNG 1.6] (Eterna round: R96, puzzle: Same State NG 1)”: the “apparent KD of MS2 coat protein” value is 143 nM (input ligand: FMN 200 uM), 41.6 nM under setting [4] and 79.9 nM (input ligand: none).

Regarding “CUACGCGCCGCAGGAUAUGCCGACCCGUGUUGAGCAGAAGGGCGAAACAUGAGGAUCACCCAUGUUGAAAGAGCGCAAAAUUAA [Erteerte] (Eterna round: R96, puzzle: Same State NG 1)”, the “apparent KD of MS2 coat protein” value runs as follows: (input ligand: FMN 200 uM) 23.5 nM; under setting [4], 16.4 nM; (input ligand: none) 30.1 nM.

Consider “CUCAAAACAAGUUGCAGUGUUCGUCUUUAACAUGAGGAUCACCCAUGUAAUAACCCAGUGGAAGCGCUCGGGCCACC [Ineson] (puzzle: Sensor for hsa-mir-208a)”, for which the “apparent KD of MS2 coat protein” value reads like this: under setting [1], 30.2 nM; under setting [3], 28.5 nM.

On to “CUCAAAACAAGUUGCAGUGUUCGUCUUUAACAUGAGGAUCACCCAUGUAAUAGCCCAGUAGAAGCGCUCGGGCCACC [Ceedbeen] (puzzle: Sensor for hsa-mir-208a)”, for which the “apparent KD of MS2 coat protein” value turned out to be 34.5 nM under setting [1], 26.4 nM under setting [2] and 31.9 nM under setting [3].

For the sequence “CUCAAACAUGAGGAUCACCCAUGUGUUGUCAUGGGAGGAUAUCCCAGUUCGUUGUCGUCGGGAGAAGGCCUAUGUC [× ×•×ª×• ×ž×“×™× ×” × ×—×ª-14] (puzzle: Same State 1)”, the “apparent KD of MS2 coat protein” value under setting [2] was 55.9 nM.

As for “CUCAAACAUGAGGAUCACCCAUGUGUUGUCGUGGGAGGAUAUCCCGGUUCGGUGGCGUCGGGAGAAGGCCUAUGUC [× ×•×ª×• ×ž×“×™× ×” × ×—×ª-17] (puzzle: Same State 1)”, the “apparent KD of MS2 coat protein” value under setting [2] worked out at 54.8 nM.

As for “CUCACUUGGGUAGGAUAUCUAGGAUAUGGGAAAGACUAAGUCUGUAGGUCACCUAACCCAGAUGGAGAGAAGGACCCAACACUC [pwkr ssNG2 2FMN + F9.38] (Eterna round: R96, puzzle: Same State NG 2)”, the “apparent KD of MS2 coat protein” value is, setting by setting: (input ligand: FMN 200 uM) 57.9 nM; under setting [4], 2.64 nM; (input ligand: none) 33.1 nM.

In the case of “CUGAAAUGUCAAGGAUAUCACGUCGAUUAGACGUGAGAAGGUGAUCUGCACAUGAGGAUCACCCAUGUGUUACAUGGAAUUCAG [Brourd's SSNG1/1-A2 mod 13] (Eterna round: R96, puzzle: Same State NG 1)”, the “apparent KD of MS2 coat protein” value reads like this: (input ligand: FMN 200 uM) 166 nM; under setting [4], 406 nM; (input ligand: none) 503 nM.

With “CUGAGAUGUCAAGGAUAUCACGUCGAUUAGACGUGAGAAGGUGAUCUGCACAUGAGGAUCACCCAUGUGUUACAUGGAAUUCAG [Brourd's SSNG1/1-A2 mod 12] (Eterna round: R96, puzzle: Same State NG 1)”, the “apparent KD of MS2 coat protein” value was 567 nM (input ligand: FMN 200 uM), 278 nM under setting [4] and 889 nM (input ligand: none).

In the case of “CUGAGCAAUCAAGGAUAUCACGUCGAAUAGACGUGAGAAGGUGAUCAUAACAUGAGGAUCACCCAUGUAUUACAUGAAGCUCAG [SSNG1/1-A1] (Eterna round: R96, puzzle: Same State NG 1)”, the “apparent KD of MS2 coat protein” value reads like this: (input ligand: FMN 200 uM) 512 nM; under setting [4], 399 nM; (input ligand: none) 1280 nM.

Consider “CUGAGCAAUCAAGGAUAUCACGUCGAUUAGACGUGAGAAGGUGAUCAUAACAUGAGGAUCACCCAUGUAUUACAUGGAGCUCAG [Brourd's SSNG1/1-A2 mod 1] (Eterna round: R96, puzzle: Same State NG 1)”, for which the “apparent KD of MS2 coat protein” value is, setting by setting: (input ligand: FMN 200 uM) 533 nM; under setting [4], 124 nM; (input ligand: none) 397 nM.

On to “CUGAGCAAUCAAGGAUAUCACGUCGAUUAGACGUGAGAAGGUGAUCAUUACAUGAGGAUCACCCAUGUGUUACAUGGAGCUCAG [Brourd's SSNG1/1-A2 mod 3] (Eterna round: R96, puzzle: Same State NG 1)”, for which the “apparent KD of MS2 coat protein” value by setting is: (input ligand: FMN 200 uM) 395 nM; under setting [4], 54.9 nM; (input ligand: none) 159 nM.

Consider “CUGAGCAGUCAAGGAUAUCACGUCGAUUAGACGUGAGAAGGUGAUUAAUACAUGAGGAUCACCCAUGUAAUACAUGAAGCUCAG [SSNG1/11-A2] (Eterna round: R96, puzzle: Same State NG 1)”, for which the “apparent KD of MS2 coat protein” value by setting is: (input ligand: FMN 200 uM) 13.8 nM; under setting [4], 38.4 nM; (input ligand: none) 41.9 nM.

As to “CUGCAACAUGAGGAUCACCCAUGUAACCCGGUUACAGGAUAUGUGAUGGUGAUCGACAUGACAGAAGGGUGAUUGG [Indiinbi] (puzzle: Same State 1)”, the “apparent KD of MS2 coat protein” value is, setting by setting: under setting [1], 41.5 nM; under setting [2], 21.5 nM; under setting [3], 29.6 nM.

As for “CUGCACCGUGGAGGAUAUGGGCUGAGGCCAGGACAACCCUGGCCAACAUGAGGAUCACCCAUGUCCCAGAAGGCCACAGUGCUA [Zaenmaxe] (Eterna round: R96, puzzle: Same State NG 2)”, the “apparent KD of MS2 coat protein” value was 15.1 nM (input ligand: FMN 200 uM), 86.7 nM under setting [4] and 112 nM (input ligand: none).

As for “CUGCGUAACACAGGAUAUACCUCCGCAAGGAACGUAGAAGGGUGAGUAGCAGACAUGAGGAUCACCCAUGUAAAGGCCAAGGCC [Enqudiso] (Eterna round: R96, puzzle: Same State NG 1)”, the “apparent KD of MS2 coat protein” value came to 48.4 nM (input ligand: FMN 200 uM), 95.7 nM under setting [4] and 98 nM (input ligand: none).

For “CUGCUACAUGAGGAUCACCCAUGUUGGAGUGAUGCAGGAUAUGUGGGACCAGAAGAUGAAACAGAAGGGCAAAGAA [JR_SS!_Sub005] (puzzle: Same State 1)”, the “apparent KD of MS2 coat protein” value under setting [1] worked out at 98.4 nM, the “apparent KD of MS2 coat protein” value under setting [2] amounted to 119 nM and the “apparent KD of MS2 coat protein” value under setting [3] worked out at 97.6 nM.

As to “CUGCUACAUGAGGAUCACCCAUGUUGGAGUGAUGCAGGAUAUGUGUGACCAGAAGAUGAAACAGAAGGGCAAAGAA [JR_SS!_Sub004] (puzzle: Same State 1)”, the “apparent KD of MS2 coat protein” value by setting is: under setting [1], 96.2 nM; under setting [2], 75.7 nM; under setting [3], 101 nM.

Consider “CUGCUCGUGUGAGGAUAUGCCGCCGUUUCGGCUGCAGAAGGUGCUACGUUACAUGAGGAUCACCCAUGUCUCUGUUGUUUCGUU [salish99_SSNG1_r04_947] (Eterna round: R96, puzzle: Same State NG 1)”, for which the “apparent KD of MS2 coat protein” value (input ligand: FMN 200 uM) stood at 20.2 nM, the “apparent KD of MS2 coat protein” value under setting [4] came out at 19 nM and the “apparent KD of MS2 coat protein” value (input ligand: none) came out at 22.8 nM.

On to “CUGUGUUGCGGGCAGGAUAUGUAUUGGGAUACAUGAGGAUCACCCAUGUGCGGGUGUUUCACCCGACAGAAGGGCCAAUCGCGAC [JL-ss2-3.22 ViennaUCT mod] (puzzle: Same State 2)”, for which the “apparent KD of MS2 coat protein” value reads like this: under setting [1], 200 nM; under setting [2], 370 nM; under setting [3], 472 nM.
